Results published in US20240270793A1, “COMPOSITIONS” (UNIVERSITY OF SOUTHAMPTON, priority 2020, published 2024).
Square brackets hold non-standard residues; d marks the D form. Peptide text beside a SMILES is read from it. Phe(4-I) = N[C@@H](Cc1ccc(I)cc1)C(=O)O

How the values were obtained:
[1] = cited from earlier work
[2] = tested on: 1α PAS-B mutants C255A, C334A or C337A; experiment: MST binding to 1α PAS-B cysteine mutants; parameters: species or system human; settings: mutations C255A
Excerpt: The potency imparted by the thiol motif raised the possibility of the interaction being disulfide-mediated. To counter this, all assays thus far had been performed with excess reducing agent tris(2-carboxyethyl)phosphine (TCEP) present in the buffers. Nonetheless the possibility was still considered due to the importance of the thiol moiety. As the HIF-α PAS-B domain contains multiple cysteines in internal cavities there remained the potential for disulfide bond formation within a solvent and TCEP-inaccessible region of the protein-peptide complex. Three 1α PAS-B mutants were therefore prepared with mutations C255A, C334A or C337A and the activity of the peptide CRLIIF [SEQ ID NO: 6, cyclic peptide #4] again tested by MST. It was anticipated that if a disulfide bond were to form with any of these then there would be a significant loss of binding for the peptide with the corresponding mutant.
(§1) HIF-α proteins were labelled with Monolith NT-647 labelling dye (Nanotemper Technologies GmbH) according to the manufacturer's instructions. MST experiments were performed on a Monolith NT.115 system (Nanotemper Technologies GmbH), in assay buffer containing 50 nM labelled protein, 10% DMSO and 0.05% TWEEN-20. MST measurements were performed using 50% LED and 50% MST power.

HIF-1α PAS-B (238-349) = target: T1, HIF-1α PAS-B (238-349) (Homo sapiens, UniProt Q16665); experiment: MST binding to recombinantly expressed HIF-1α PAS-B domain
T1 construct: human HIF-1α PAS-B (238-349); His tag; made in house; host or cells: E. coli BL21(DE3)-Rosetta, pET28a
Experimental: Genes encoding for human HIF-1α PAS-B (238-349) and HIF-2α PAS-B (240-350) were each cloned into pET28a vectors at the BamHI and SacI restriction sites. The recombinant plasmids were next transformed into BL21(DE3)-Rosetta chemically competent cells. Cells were grown in LB media at 37° C. to an OD600 of 0.7, after which expression was induced by addition of 0.5 mM IPTG. Following overnight expression at 16° C., cells were pelleted and resuspended in buffer containing 50 mM Tris, 150 mM NaCl, 5% glycerol, 1 mM TCEP, protease inhibitors (Roche) and 20 mM imidazole, pH 8.0. Cells were lysed by sonication, and the supernatant applied to a 1 mL Histrap FF affinity column. The His-tagged protein of interest was eluted with buffer containing 50 mM Tris, 150 mM NaCl, 5% glycerol, 1 mM TCEP and 250 mM imidazole. The protein was then loaded onto a HiLoad 16/600 superdex 75 pg size exclusion column (GE healthcare) equilibrated with assay buffer containing 50 mM Tris, 150 mM NaCl, 5% glycerol and 1 mM TCEP, pH 8.0. Fractions containing the desired protein were flash-frozen and stored at −80° C. prior to use.
as §1

HIF-2α/1α:HIF-1β RTHS = experiment: RTHS secondary screening, drop-spotting regrowth assay; assay type: cell-based; settings: SICLOPPS-expressed peptide, control CAAAAA
Experimental: A screen for cyclic peptide inhibitors of HIF-2 dimerization was performed using SICLOPPS with a HIF-2 RTHS, using a method described previously.^8,9 (FIG. 1a). A secondary screen was then also conducted on the HIF-1 RTHS to compare selectivity, after which the hits found to inhibit both HIF-2 and HIF-1 were chosen for further review (FIG. 1b). SICLOPPS plasmids that produced a growth advantage in both systems were further screened in an unrelated p6/UEV RTHS to eliminate false positives (FIG. 1b).
It was expected that the similarity between these peptides would translate to a common structure-affinity relationship trend between the three, and that any differences in affinity could be used to inform optimisation efforts. In addition, all three peptides contained a basic side chain (arginine or lysine), which are protonated under physiological conditions, and would therefore aid solubility and potentially provide a useful polar interaction with the proteins themselves. […] The splicing efficiency of peptides from the Ssp intein may vary slightly depending on their sequence, thus resulting in different concentrations of peptide in the cell, which may therefore bias the extent of regrowth response.^10 It was therefore decided that to fully validate these hits, that the binding activity was to be assessed under in vitro assay conditions. […]

[3] = target: T2, human HIF-1α PAS-B (238-349), recombinant, His-tagged (human, UniProt Q16665 238-349, labelled with Monolith NT-647 dye for MST); experiment: MST, HIF-1α PAS-B; bar chart of Kd (µM) for residues at position 6 of CRLIIF
T2 construct: range 238-349; Expressed in E. coli BL21(DE3)-Rosetta from pET28a; also called HIF-1α PAS-B domain; PAS-B domain of HIF-1α; not shown: His tag from pET28a vector (BamHI/SacI cloning)

[4] = target: T2, human HIF-1α PAS-B (238-349), …; experiment: MST, peptide titrated against labelled HIF-1α PAS-B [top panel]
[5] = target: T3, human HIF-2α PAS-B (240-350), recombinant, His-tagged (human, UniProt Q99814 240-350, labelled with Monolith NT-647 dye for MST); experiment: MST, peptide titrated against labelled HIF-2α PAS-B [top panel]
T3 construct: range 240-350; Expressed in E. coli BL21(DE3)-Rosetta from pET28a; also called PAS-B domain of HIF-2α; not shown: His tag from pET28a vector (BamHI/SacI cloning)

[6] = target: T2, human HIF-1α PAS-B (238-349), …; experiment: MST, NT-647-labelled recombinant 1α PAS-B
Experimental: as §1

[7] = target: T3, human HIF-2α PAS-B (240-350), …; experiment: MST, NT-647-labelled recombinant PAS-B domain
Experimental: as §1

[8] = target: T2, human HIF-1α PAS-B (238-349), …; experiment: MST, NT-647-labelled recombinant PAS-B domain
Experimental: as §1

[9] = target: T2, human HIF-1α PAS-B (238-349), …; experiment: MST, peptide titrated against labelled HIF-1α PAS-B [bottom panel]
[10] = target: T2, human HIF-1α PAS-B (238-349), …; experiment: MST, ratio of Kd on HIF-2α PAS-B to Kd on HIF-1α PAS-B
[11] = target: T3, human HIF-2α PAS-B (240-350), …; experiment: MST, peptide titrated against labelled HIF-2α PAS-B [bottom panel]
[12] = target: T2, human HIF-1α PAS-B (238-349), …; experiment: MST, peptide titrated against labelled HIF-1α PAS-B [middle panel]
[13] = target: T3, human HIF-2α PAS-B (240-350), …; experiment: MST, peptide titrated against labelled HIF-2α PAS-B [middle panel]
[14] = target: T2, human HIF-1α PAS-B (238-349), …; experiment: MST, NT-647-labelled recombinant HIF-1α PAS-B
Experimental: as §1

[15] = target: T3, human HIF-2α PAS-B (240-350), …; experiment: MST, NT-647-labelled recombinant HIF-2α PAS-B
Experimental: as §1

[16] = target: T3, human HIF-2α PAS-B (240-350), …; experiment: MST, HIF-2α PAS-B against HIF-1α PAS-B
Experimental: as §1

[17] = target: HIF (hypoxia inducible factor) in the YFP-reporter T-REx-293 (HEK) cell line; experiment: cell-based or functional assay

T2 sequence (Q16665 238-349): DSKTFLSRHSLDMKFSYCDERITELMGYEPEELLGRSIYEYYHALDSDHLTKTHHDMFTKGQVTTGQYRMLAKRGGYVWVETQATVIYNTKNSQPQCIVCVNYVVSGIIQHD
T3 sequence (Q99814 240-350): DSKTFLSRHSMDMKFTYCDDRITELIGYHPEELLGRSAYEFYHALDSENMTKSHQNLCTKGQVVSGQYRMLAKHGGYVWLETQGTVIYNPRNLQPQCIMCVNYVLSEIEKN
T1 sequence (Q16665 238-349): as the sequence (Q16665 238-349) above

## CLLFVY: previously reported selective inhibitor of HIF-1 dimerization, cyclic peptide Cys leu leu phe val tyr
[1]
  solubility of previously reported HIF-1 inhibitor: comparatively insoluble

## CC[C@H](C)[C@@H]1NC(=O)[C@H](CC(C)C)NC(=O)[C@H](CCCNC(=N)N)NC(=O)[C@H](CS)NC(=O)[C@H](Cc2ccccc2)NC(=O)[C@H]([C@@H](C)CC)NC1=O [Cyclic peptide #4, cyclo-cys agr leu ile ile phe] (cyclo(CRLIIF))
[2]
  affinity for 1α PAS-B mutants compared to wild-type protein: identical to that of the wild-type protein
HIF-1α PAS-B (238-349); MST against 1α PAS-B
  greater affinity than CKLLIF: about 3 fold

## CC[C@H](C)[C@@H]1NC(=O)[C@H](C(C)C)NC(=O)[C@H](CCCNC(=N)N)NC(=O)[C@H](CS)NC(=O)[C@H](Cc2ccccc2)NC(=O)[C@H]([C@@H](C)CC)NC1=O [Cyclic peptide #3, cyclo-cys arg val ile ile phe] (cyclo(CRVIIF))
HIF-2α/1α:HIF-1β RTHS
  regrowth response in drop-spotting assay: greatest regrowth response
HIF-1α PAS-B (238-349); MST affinities, 1α vs 2α PAS-B
  selectivity for 1α over 2α: 2 fold

B1: cyclo-cys arg leu ile ile tyr (peptide)
peptide: CRLIIY
modifications: head-to-tail cyclic (cyclo-)
notes: also called Cyclo-CRLIIY; cyclic peptide #29
[3]
  binding result: binds

B2: cyclo-cys lys leu ile ile phe (peptide)
peptide: CKLIIF
modifications: head-to-tail cyclic (cyclo-)
notes: also called CKLIIF; cyclic peptide #1
[4]
  Kd: 2.6 µM
[5]
  Kd: 2.2 µM
[6]
  Kd: 2.5 µM
[7]
  Kd: ~2 µM
[8]
  Kd: ~2 µM

B3: cyclo-cys arg val ile ile phe (peptide)
peptide: CRVIIF
modifications: head-to-tail cyclic (cyclo-)
notes: also called CRVIIF; cyclic peptide #3
[9]
  Kd: 65.5 µM
[10]
  fold selectivity for 1α over 2α: ~2 fold
[11]
  Kd: 123 µM
[7]
  Kd: 118 µM
[8]
  Kd: 61 µM

B4: cyclo-cys arg leu leu ile phe (peptide)
peptide: CRLLIF
modifications: head-to-tail cyclic (cyclo-)
notes: also called CRLLIF; cyclic peptide #2
[12]
  Kd: 14.5 µM
[13]
  Kd: 10.2 µM
[6]
  Kd: 14 µM

B5: cyclo-cys arg leu ile ile (4-I)phe (peptide)
peptide: cyclo(CRLII[Phe(4-I)])
SMILES: CC[C@H](C)[C@@H]1NC(=O)[C@H](CC(C)C)NC(=O)[C@H](CCCNC(=N)N)NC(=O)[C@H](CS)NC(=O)[C@H](Cc2ccc(I)cc2)NC(=O)[C@H]([C@@H](C)CC)NC1=O
notes: also called CRLIIF(4I); Cyclo-CRLIIF(4-I)
[14]
  Kd: 0.85 µM
  fold improvement in affinity relative to the parent compound CRLIIF: 4.5 fold
[15]
  Kd: 1.9 µM
[16]
  fold loss in Kd compared to the 1α isoform: 2.2 fold
[17]
  IC50 in the YFP reporter assay (HRE-driven YFP in T-REx-293 cells, hypoxia): 35 µM
